Data published in patent publication US20200315149.

How the values were obtained:
[1] = target: full-length coagulation factor XII purified from human plasma (UniProt P00748)
[2] = target: cathepsin K-cleaved FXII (UniProt P00748)
[3] = target: recombinant human pro-HGF (UniProt P14210)
Sequence of recombinant human pro-HGF (P14210 32-728): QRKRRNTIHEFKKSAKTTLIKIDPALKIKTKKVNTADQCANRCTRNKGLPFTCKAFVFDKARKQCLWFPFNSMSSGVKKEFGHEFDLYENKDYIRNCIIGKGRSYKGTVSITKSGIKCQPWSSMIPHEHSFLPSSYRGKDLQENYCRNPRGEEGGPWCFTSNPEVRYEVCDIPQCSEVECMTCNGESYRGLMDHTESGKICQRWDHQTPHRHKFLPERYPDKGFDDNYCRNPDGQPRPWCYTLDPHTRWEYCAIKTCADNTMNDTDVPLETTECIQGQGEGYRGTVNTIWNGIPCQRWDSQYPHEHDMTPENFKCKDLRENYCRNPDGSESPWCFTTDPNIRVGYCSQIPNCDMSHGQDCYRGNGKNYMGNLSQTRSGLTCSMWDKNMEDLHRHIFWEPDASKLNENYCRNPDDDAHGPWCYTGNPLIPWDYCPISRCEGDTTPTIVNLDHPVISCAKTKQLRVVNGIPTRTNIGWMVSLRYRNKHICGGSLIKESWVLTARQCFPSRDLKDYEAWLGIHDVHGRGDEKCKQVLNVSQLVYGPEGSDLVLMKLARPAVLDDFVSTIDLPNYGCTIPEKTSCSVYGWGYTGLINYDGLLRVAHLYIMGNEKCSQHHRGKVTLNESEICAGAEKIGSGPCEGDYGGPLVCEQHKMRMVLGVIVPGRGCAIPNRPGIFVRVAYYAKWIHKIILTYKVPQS

Sequence of plasma kallikrein (chain, as listed by the source): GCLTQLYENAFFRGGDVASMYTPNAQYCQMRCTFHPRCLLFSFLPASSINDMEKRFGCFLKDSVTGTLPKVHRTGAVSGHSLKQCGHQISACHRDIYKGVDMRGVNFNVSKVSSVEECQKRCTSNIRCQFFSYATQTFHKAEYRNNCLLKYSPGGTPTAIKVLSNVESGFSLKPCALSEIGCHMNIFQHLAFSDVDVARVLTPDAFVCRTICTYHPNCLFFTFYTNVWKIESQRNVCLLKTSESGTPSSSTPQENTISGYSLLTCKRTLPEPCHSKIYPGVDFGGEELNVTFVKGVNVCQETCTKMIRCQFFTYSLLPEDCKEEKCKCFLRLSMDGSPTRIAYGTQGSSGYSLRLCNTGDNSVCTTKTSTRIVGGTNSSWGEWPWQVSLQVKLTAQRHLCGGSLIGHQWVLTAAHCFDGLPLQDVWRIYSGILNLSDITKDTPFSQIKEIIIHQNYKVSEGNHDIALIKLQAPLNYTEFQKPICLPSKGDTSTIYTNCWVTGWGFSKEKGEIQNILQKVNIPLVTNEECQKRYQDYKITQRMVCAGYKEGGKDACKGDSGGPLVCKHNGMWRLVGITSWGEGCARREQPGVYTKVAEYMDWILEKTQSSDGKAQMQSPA
Sequence of full-length coagulation factor XII purified from human plasma (P00748 20-615): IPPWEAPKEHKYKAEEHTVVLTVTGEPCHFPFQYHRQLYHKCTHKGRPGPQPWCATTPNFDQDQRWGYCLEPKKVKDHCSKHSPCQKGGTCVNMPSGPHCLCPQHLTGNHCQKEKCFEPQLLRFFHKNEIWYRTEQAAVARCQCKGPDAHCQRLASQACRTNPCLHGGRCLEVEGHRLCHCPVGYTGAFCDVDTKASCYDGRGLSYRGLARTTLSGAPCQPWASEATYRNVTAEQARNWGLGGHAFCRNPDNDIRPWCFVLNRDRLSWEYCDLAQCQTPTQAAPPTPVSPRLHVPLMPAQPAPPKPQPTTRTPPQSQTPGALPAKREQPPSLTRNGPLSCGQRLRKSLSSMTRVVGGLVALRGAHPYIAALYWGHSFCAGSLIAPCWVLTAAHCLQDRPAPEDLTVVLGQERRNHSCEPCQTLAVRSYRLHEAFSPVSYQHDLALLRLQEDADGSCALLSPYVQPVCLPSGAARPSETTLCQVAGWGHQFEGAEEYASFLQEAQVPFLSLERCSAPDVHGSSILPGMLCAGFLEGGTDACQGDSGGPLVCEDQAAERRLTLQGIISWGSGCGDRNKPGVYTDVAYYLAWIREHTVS
Sequence of cathepsin K-cleaved FXII (P00748 20-615): as above

Row | Substance | FXIIa activity on chromogenic substrate S-2302 after incubation with plasma kallikrein (15 nM, 15 min) [1] | FXIIa activity on chromogenic substrate S-2302 after incubation with plasma kallikrein (15 nM, 15 min) [2] | cleavage of pro-HGF, western blot [3]
1 | plasma kallikrein | Cathepsin-cleaved FXII incubated with kallikrein (15 nM) had much higher activity than full length FXII incubated with kallikrein | cathepsin K-cleaved FXII had dramatically increased activity compared to full-length FXII when incubated with plasma kallikrein | 
2 | thrombin |  |  | other serine proteases found in the brain such as thrombin and tissue plasminogen activator did not convert pro-HGF to HGF
